Source: patent US20230265151A1, “GIP/GLP1 CO-AGONIST COMPOUNDS” (priority 2020, published 2023)
*1 amine or outer side, *2 acyl side, *3 side chain or, on linkers, in order; H or OH if unused. Where no end group is shown, it is not given here. Side-chain parts run from the residue outwards. [ ]: non-standard residue; d: D form. The star is where a group is joined. αMePhe(2-F) = C[C@](N)(Cc1ccccc1F)C(=O)O; γGlu = O=C(O)[C@H](CCC(=O)[*:2])N[*:1]; C14 diacid = O=C(O)CCCCCCCCCCCCC(=O)*; αMeY = C[C@](N)(Cc1ccc(O)cc1)C(=O)O; αMeF = C[C@](N)(Cc1ccccc1)C(=O)O; αMeL = CC(C)C[C@](C)(N)C(=O)O; Orn = NCCC[C@H](N)C(=O)O; AEEA = NCCOCCOCC(=O)O; Aib = CC(C)(N)C(=O)O

T1: human GIP receptor (human, UniProt P48546 22-466)
T1 sequence (looked up): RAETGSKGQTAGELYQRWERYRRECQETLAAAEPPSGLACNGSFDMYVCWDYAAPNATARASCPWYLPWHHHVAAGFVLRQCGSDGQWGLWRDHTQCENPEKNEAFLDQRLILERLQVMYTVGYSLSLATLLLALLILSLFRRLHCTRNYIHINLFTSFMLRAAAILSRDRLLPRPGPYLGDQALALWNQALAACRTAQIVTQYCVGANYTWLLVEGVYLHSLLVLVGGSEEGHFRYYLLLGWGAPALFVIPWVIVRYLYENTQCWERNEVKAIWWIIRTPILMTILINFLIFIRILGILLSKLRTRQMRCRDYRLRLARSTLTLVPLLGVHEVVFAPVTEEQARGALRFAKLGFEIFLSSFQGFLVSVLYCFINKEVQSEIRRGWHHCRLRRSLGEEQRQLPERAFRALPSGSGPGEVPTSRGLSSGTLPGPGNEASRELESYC


Columns and labels:
Experiment in all cases: cell-based or functional assay
[1] = target: T1, human GIP receptor
[2] = target: human GLP-1 receptor (human, UniProt P43220 24-463)
[3] = target: human glucagon receptor (human, UniProt P47871 26-477)

Binder | EC50, cAMP [1] [nM] | EC50, cAMP [2] [nM] | Emax, cAMP [2] [%] | EC50, cAMP [3] [nM] | Emax, cAMP [1] [%]
YXEGTXTSDXSIXLDXKAQXEXIKXLIEGGPSSGAPPPS (Aib2, αMeF(2F)6, Ac5c10, αMeL13, Orn16, Aib20, αMeF22, αMeF25, K17 and K24: K(AEEA2-(γ-Glu)-CO-(CH2)12-CO2H), C-terminal NH2) [Example 124] | 0.1 | 1.24 | 93.3 | > 9950 | –
YXEGTXTSDXSIXLDXKAQXKFIXXLIEGGPSSGAPPPS (Aib2, αMeF(2F)6, 4Pal10, αMeL13, Orn16, Aib20, D-Glu24, αMeY25, K17 and K21: K(AEEA2-(γ-Glu)-(4-(4-tert-butylphenyl)butanoyl)), C-terminal NH2) [Example 131] | 0.0156 | 0.19 | – | > 9950 | –
YXEGTXTSDXSIXLDXKAQXEFIXXLIEGGKSSGAPPPS (Aib2, αMeF(2F)6, 4Pal10, αMeL13, Orn16, Aib20, D-Glu24, αMeY25, K17 and K31: K(AEEA-(γ-Glu)-CO-(CH2)12-CO2H), C-terminal NH2) [Example 11] | 0.0135 | 0.511 | – | > 9950 | –
YXEGTXTSDXSIXLDXKAQXEFIXXLIEGGKSSGAPPPS (Aib2, αMeF(2F)6, 4Pal10, αMeL13, Orn16, Aib20, D-Glu24, αMeY25, K17 and K31: K(AEEA-(γ-Glu)-(10-(4-carboxyphenoxy)decanoyl)), C-terminal NH2) [Example 12] | 0.0127 | 0.423 | – | > 9950 | –
YXEGTXTSDXSIXLDXKAQXEFIKXLIEGGPSSGAPPPS (Aib2, αMeF(2F)6, 4Pal10, αMeL13, Orn16, Aib20, αMeY25, K17 and K24: K(AEEA2-(γ-Glu)-(4-(4-tert-butylphenyl)butanoyl)), C-terminal NH2) [Example 132] | 0.0208 | 0.182 | – | > 9950 | –
YXEGTXTSDXSIXLDXKAQXEFIXXLIKGGPSSGAPPPS (Aib2, αMeF(2F)6, 4Pal10, αMeL13, Orn16, Aib20, D-Glu24, αMeY25, K17 and K28: K(AEEA2-(γ-Glu)-(10-(4-carboxyphenoxy)decanoyl)), C-terminal NH2) [Example 129] | 0.0248 | 1.28 | – | > 9950 | –
YXEGTXTSDXSIXLDXKAQXKFIXXLIEGGPSSGAPPPS (Aib2, αMeF(2F)6, 4Pal10, αMeL13, Orn16, Aib20, D-Glu24, αMeY25, K17 and K21: K(AEEA2-(γ-Glu)-CO-(CH2)10-CH3), C-terminal NH2) [Example 137] | 0.0116 | 0.134 | – | > 9950 | –
YXEGTXTSDXSIXLDXKAQXEFIKXLIEGGPSSGAPPPS (Aib2, αMeF(2F)6, Ac5c10, αMeL13, Orn16, Aib20, αMeY25, K17 and K24: K(AEEA2-(γ-Glu)-CO-(CH2)12-CO2H), C-terminal NH2) [Example 116] | 0.137 | 0.197 | – | > 9950 | 115
YXEGTXTSDVSIXLDXKAQXEXIKXLIEGGPSSGAPPPS (Aib2, αMeF(2F)6, αMeL13, Orn16, Aib20, αMeF22, αMeY25, K17 and K24: K(AEEA2-(γ-Glu)-CO-(CH2)12-CO2H), C-terminal NH2) [Example 118] | 0.0547 | 0.437 | – | > 9950 | 94.7
YXEGTXTSDVSIXLDXKAQXEXIKXLIEGGPSSGAPPPS (Aib2, αMeF(2F)6, αMeL13, Orn16, Aib20, αMeF22, αMeF25, K17 and K24: K(AEEA2-(γ-Glu)-CO-(CH2)12-CO2H), C-terminal NH2) [Example 122] | 0.064 | 0.41 | 94.3 | > 9950 | –
YXEGTXTSDXSIXLDXKAQXEFIXXLIEGGKSSGAPPPS (Aib2, αMeF(2F)6, 4Pal10, αMeL13, Orn16, Aib20, D-Glu24, αMeY25, K17 and K31: K(AEEA2-(γ-Glu)-(7-(4-carboxyphenoxy)heptanoyl)), C-terminal NH2) [Example 125] | 0.0547 | 2.78 | – | > 9950 | –
YXEGTXTSDXSIXLDXKAQXEXIKXLIEGGPSSGAPPPS (Aib2, αMeF(2F)6, Ac5c10, αMeL13, Orn16, Aib20, αMeF22, αMeY25, K17 and K24: K(AEEA2-(γ-Glu)-CO-(CH2)12-CO2H), C-terminal NH2) [Example 120] | 0.0866 | 1.43 | – | > 9950 | –
YXEGTXTSDKSIXLDXKAQXEFIXXLIEGGPSSGAPPPS (Aib2, αMeF(2F)6, αMeL13, Orn16, Aib20, D-Glu24, αMeY25, K10 and K17: K(AEEA2-(γ-Glu)-(4-(4-tert-butylphenyl)butanoyl)), C-terminal NH2) [Example 130] | 0.0266 | 0.204 | 100 | > 9950 | 94.7
YXEGTXTSDXSIXLDXKAQXEFIXXLIEGGKSSGAPPPS (Aib2, αMeF(2F)6, 4Pal10, αMeL13, Orn16, Aib20, D-Glu24, αMeY25, K17 and K31: K(AEEA-(γ-Glu)-CO-(CH2)14-CH3), C-terminal NH2) [Example 13] | 0.00597 | 0.0214 | – | > 9950 | –
Y[Aib]EGT[αMePhe(2-F)]TSDV[Aib]I[αMeL]LD[Orn]K([AEEA-AEEA-γGlu-C14 diacid])AQ[Aib]E[αMeF]IK([AEEA-AEEA-γGlu-C14 diacid])[αMeY]LIEGGPSSGAPPPS-NH2 [Example 119] | 0.0863 | 0.351 | 99.4 | > 9950 | –
